We go through six molecules from paper PMC11382887, “Molecular mechanism of HNF-1A–mediated HNF4A gene regulation and promoter-driven HNF4A-MODY diabetes”.

In data set [1] the target is T1, HNF-1A DD-DBD (HNF-1A 1-279) (UniProt P20823 1-279). Briefly: ITC; text refers to ref 36; Methods also list RA among the titrations done here; ITC: 20 mM HEPES pH 7.5, 200 mM NaCl, 1 mM TCEP, 30 C, 250 uM dsDNA into 50 uM protein; BLI: streptavidin sensor with BiotinTEG dsDNA, buffer not in material. Conditions: protein: recombinant; tags: His6 removed by TEV; chain copies: 2; label: 5' BiotinTEG on forward strand (BLI only); blunt.
T1 sequence (P20823 1-279): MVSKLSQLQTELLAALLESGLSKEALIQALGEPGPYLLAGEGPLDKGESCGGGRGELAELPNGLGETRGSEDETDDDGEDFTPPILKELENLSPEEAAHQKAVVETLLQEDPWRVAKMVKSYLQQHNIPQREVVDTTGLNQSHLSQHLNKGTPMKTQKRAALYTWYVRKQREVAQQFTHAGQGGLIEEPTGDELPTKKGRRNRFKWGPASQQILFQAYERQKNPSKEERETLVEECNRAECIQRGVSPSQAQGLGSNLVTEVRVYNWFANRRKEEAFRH

For data set [2], the target named is T1, HNF-1A DD-DBD (HNF-1A 1-279). The experiment in a line: BLI; ITC: 20 mM HEPES pH 7.5, 200 mM NaCl, 1 mM TCEP, 30 C, 250 uM dsDNA into 50 uM protein; BLI: streptavidin sensor with BiotinTEG dsDNA, buffer not in material. Conditions: protein: recombinant; tags: His6 removed by TEV; chain copies: 2; label: 5' BiotinTEG on forward strand; blunt. For orientation: BLI is a label-free optical method that tracks binding on a fibre tip over time.

Data set [3] has the same target. The experiment in a line: ITC; increase vs WT not significant; ITC: 20 mM HEPES pH 7.5, 200 mM NaCl, 1 mM TCEP, 30 C, 250 uM dsDNA into 50 uM protein; BLI: streptavidin sensor with BiotinTEG dsDNA, buffer not in material. Conditions: protein: recombinant; tags: His6 removed by TEV; chain copies: 2; label: 5' BiotinTEG on forward strand (BLI only); blunt. On the technique in general: ITC needs no label: the signal is the heat of the interaction.

For data set [4] the target is unchanged. Briefly: ITC; ITC: 20 mM HEPES pH 7.5, 200 mM NaCl, 1 mM TCEP, 30 C, 250 uM dsDNA into 50 uM protein; BLI: streptavidin sensor with BiotinTEG dsDNA, buffer not in material. Conditions: protein: recombinant; tags: His6 removed by TEV; chain copies: 2; label: 5' BiotinTEG on forward strand (BLI only); blunt.
Data set [5] has the same target. The experiment in a line: BLI; kinetic Kd (koff/kon); ITC: 20 mM HEPES pH 7.5, 200 mM NaCl, 1 mM TCEP, 30 C, 250 uM dsDNA into 50 uM protein; BLI: streptavidin sensor with BiotinTEG dsDNA, buffer not in material. As to conditions: protein: recombinant; tags: His6 removed by TEV; chain copies: 2; label: 5' BiotinTEG on forward strand (BLI only); blunt.
The target is the same in data set [6]. Briefly: ITC; 2:1 protein:DNA stoichiometry; ITC: 20 mM HEPES pH 7.5, 200 mM NaCl, 1 mM TCEP, 30 C, 250 uM dsDNA into 50 uM protein; BLI: streptavidin sensor with BiotinTEG dsDNA, buffer not in material. Conditions: protein: recombinant; tags: His6 removed by TEV; chain copies: 2; label: 5' BiotinTEG on forward strand (BLI only); blunt.
Data set [7] has the same target. Briefly: BLI; kinetic Kd (koff/kon); kon ~3x lower, koff ~3x higher; ITC: 20 mM HEPES pH 7.5, 200 mM NaCl, 1 mM TCEP, 30 C, 250 uM dsDNA into 50 uM protein; BLI: streptavidin sensor with BiotinTEG dsDNA, buffer not in material. As to conditions: protein: recombinant; tags: His6 removed by TEV; chain copies: 2; label: 5' BiotinTEG on forward strand (BLI only); blunt.

B1: RA (rat albumin promoter) (dsDNA)
DNA 1: CTTGGTTAATAATTCACCAGA
DNA 2: TCTGGTGAATTATTAACCAAG
The Kd is the constant that tells how readily two partners part at equilibrium. B1: in data set [1], the Kd is 100 ± 50 nM.

B2: Randomized sequence (dsDNA)
DNA 1: TCATCATATCATGCTATAAAT
DNA 2: ATTTATAGCATGATATGATGA
With B2, in data set [2], the binding result is listed as “no binding”.

B3: P2 -181G>A (dsDNA)
DNA 1: ACTGATTACTCTTTAACGTAT
DNA 2: ATACGTTAAAGAGTAATCAGT
Take B3: in data set [3], the Kd was 600 nM.

B4: P2 -169C>T (dsDNA)
DNA 1: ACTGGTTACTCTTTAATGTAT
DNA 2: ATACATTAAAGAGTAACCAGT
As to B4, the Kd in data set [4] stood at 1200 nM. The “Kd fold change vs P2 WT” value in data set [5] was ~5 fold Kd vs P2 WT.

B5: P2 WT (P2-HNF4A promoter) (dsDNA)
DNA 1: ACTGGTTACTCTTTAACGTAT
DNA 2: ATACGTTAAAGAGTAACCAGT
As for B5, in data set [6], the Kd stood at 304 ± 134 nM.

B6: P2 -181G>T (dsDNA)
DNA 1: ACTGTTTACTCTTTAACGTAT
DNA 2: ATACGTTAAAGAGTAAACAGT
Turning to B6, the Kd in data set [4] is 700 nM. Further, the binding signal in data set [7] was ~10 fold Kd vs P2 WT.
